Results published in patent publication US20240076689A1, “VIRAL VECTORS AND NUCLEIC ACIDS FOR REGULATED GENE THERAPY” (Boehringer Ingelheim International GmbH, priority 2020, published 2024).
Where a chain is given by its changes, count along the chain named.

How the values were obtained:
[1] = test system: IL-12 and IFNγ plasma levels, body weight, liver enzymes; test: Dose-finding study to determine PK and safety of Tet-switch-controlled IL-12 (FIG. 18); conditions: 30 mg/kg i.p. twice daily for 5 consecutive days
[2] = Tet plasma concentration in the mIL-12 time course study; conditions: female, C57Bl/6, mouse, in vivo
[3] = four 100 mg/kg Tet doses in 8 h intervals
[4] = test system: eGFP expression in HEK293 cells; test: Tet-dependent eGFP expression from K19 constructs in transfected HEK293 cells; conditions: HEK293, independent of Tet
[5] = test system: eGFP and sNLuc expression in HEK293 cells; test: K19 riboswitch kinetics in HEK293 cells (qPCR, fluorescence, Western blot, sNLuc)

**Q.** For `CN(C)[C@@H]1C(O)=C(C(N)=O)C(=O)[C@@]2(O)C(O)=C3C(=O)c4c(O)cccc4[C@@](C)(O)[C@H]3C[C@@H]12` [Tet, tetracycline], which “tolerability of Tet (in words)” value [1] is on record?
**A.** well tolerated

**Q.** What about the concentration at 8 h ([2]; 10 mg/kg) of the same molecule?
**A.** 100 nM

**Q.** And the concentration at 8 h ([2]; 30 mg/kg)?
**A.** 750 nM

**Q.** And the “other signs of toxicity” value [3]?
**A.** no other signs of toxicity were observed

B1: catalytically inactive K19 switch: control plasmid harboring a catalytically inactive, non-cleaving K19 switch (SEQ ID No. 45) (nucleic acid)
chain: GGCGCGTCCTGGATTCGTGGTAAAACATACCAGATTTCGATCTGGAGAGGTGAAGAATACGACCACCTACTACATCCAGCTGATGAGTCCCAAATAGGACGAGACGCGCT
modifications: the letters are possibly those of the target site
**Q.** Which “steady eGFP expression level, of constitutive signal” value [4] does the source give for B1 here?
**A.** about 90%

B2: K19: Tet-responsive aptazyme: tetracycline aptamer plus hammerhead ribozyme N79 (Beilstein et al. 2015), SEQ ID NO:9/10; tested in active-switch plasmids (nucleic acid)
chain 1: B1 chain with G103A
chain 2: GGCGCGUCCUGGAUUCGUGGUAAAACAUACCAGAUUUCGAUCUGGAGAGGUGAAGAAUACGACCACCUACUACAUCCAGCUGAUGAGUCCCAAAUAGGACGAAACGCGCU
modifications: chemistry not fully specified; one strand in two spellings; the letters are possibly those of the target site
**Q.** Which results are given for B2?
**A.** onset of eGFP expression induction on the mRNA level after Tet addition ([5]; HEK293, 50 μM Tet): 15 min; onset of increase in direct eGFP fluorescence signal after Tet addition ([5]; HEK293, 50 μM Tet): two; time to full induction on the mRNA level ([5]; HEK293, 50 μM Tet): four; reversibility upon Tet retraction (in words) ([5]; HEK293 previously grown in presence of Tet): relative decrease in sNLuc expression was observed; Tet-induced sNLuc increase detected after addition ([5]; HEK293 supernatant): 2 h; time to saturation of sNLuc increase ([5]; HEK293 supernatant): 4 to 8 h
